Measurements taken from patent US20180021429A1, “ANTICANCER AGENTS OR ANTIMETASTATIC AGENTS USING FSTL1 AND COMBINATION DRUG THEREOF” (PHARMA FOODS INTERNATIONAL CO., LTD., priority 2015, published 2018).

T1: FSTL1 (Homo sapiens, UniProt Q12841)
T1 sequence (Q12841 21-308): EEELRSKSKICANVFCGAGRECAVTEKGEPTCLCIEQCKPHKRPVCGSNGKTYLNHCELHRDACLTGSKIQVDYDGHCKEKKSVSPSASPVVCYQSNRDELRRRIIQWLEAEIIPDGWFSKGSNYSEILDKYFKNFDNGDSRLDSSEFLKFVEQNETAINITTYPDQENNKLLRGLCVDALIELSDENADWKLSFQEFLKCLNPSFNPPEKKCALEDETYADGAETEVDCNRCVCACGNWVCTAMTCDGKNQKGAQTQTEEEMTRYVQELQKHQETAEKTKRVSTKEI

T2: mouse FSTL1 (Mus musculus, UniProt Q62356)
T2 construct: AAA linker + 10xHis (C); made in house; host or cells: Expi293 (transient expression; purified from culture supernatant on HisPur Cobalt Resin)
T2 sequence (Q62356 with tags, fused parts or gaps): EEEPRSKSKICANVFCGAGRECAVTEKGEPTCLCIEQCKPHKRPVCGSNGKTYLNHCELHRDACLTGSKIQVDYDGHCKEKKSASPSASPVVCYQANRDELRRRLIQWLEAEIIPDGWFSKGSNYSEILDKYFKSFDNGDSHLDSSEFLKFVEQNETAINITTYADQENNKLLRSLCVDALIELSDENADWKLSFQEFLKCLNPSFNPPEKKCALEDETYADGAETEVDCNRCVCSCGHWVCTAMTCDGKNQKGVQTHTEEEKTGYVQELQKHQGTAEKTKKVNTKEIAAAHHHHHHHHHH

B1: #5-43: chicken-mouse chimeric anti-FSTL1 antibody clone; variable regions SEQ ID NO: 779 (light), 781 (heavy) (antibody, V domains shown)
VH: AVTLDESGGGLQTPGGGLSLVCKGSGFTFSSFNMFWVRQAPGKGLEWVAGIGKDGGTGYGAAVDGRATISKDSGQSTLRLQLNNLRAEDTGTYYCAKAAGGCSYDWCGAYTGDIDTWGHGTEVIVSS
VL: ASTQPSSVSANPGEAVKITCSGGSGSYYGWYQQKSPGSAPVTVIYNNNQRPSDIPSRFSGSKSGSTATLTITGVQAEDEAVYFCGGYDSSTGHGGIFGAGTTLTVL
modifications: mouse constant regions
B2: #8-4: chicken-mouse chimeric anti-FSTL1 antibody clone; variable regions SEQ ID NO: 795 (light), 797 (heavy) (antibody, V domains shown)
VH: AVTLDESGGGLQTPGGGLSLVCKGSGFTLSSFNMFWVRQAPGKGLEWVAGVGKDGGTAYGAAVDGRATISRDSGQSTVRLQLNNLRAEDTGTYFCAKAAGGCSYSWCGAYVGDLDAWGHGTEVIVSS
VL: ASSQPSSVSANPGETVKITCSGGSGYYYGWYQQKSPGSAPVTVIYNNDNKPSDIPSRFSGSKSGSTGTLTITGVQVEDEAVYFCGGYDNSGTGIFGAGTTLTVL
modifications: mouse constant regions
B3: #5-8: chicken-mouse chimeric anti-FSTL1 antibody clone; variable regions SEQ ID NO: 771 (light), 773 (heavy) (antibody, V domains shown)
VH: AVTLDESGGGLQTPGGGLSLVCKGSGFTFSSFNMFWVRQAPGKGLEWVAGIGKDGVPKYGTAVDGRATISKDNGQSTMRLQLNNLRAEDTGTYFCAKAAGGCSYDWCGIYTGDIDTWGHGTEVIVSS
VL: ASTQPSSVSANPGEAVKITCSGGSGSYYGWYQQKSPGSAPVTVIYNNNQRPSDIPSRFSGSKSGSTATLTITGVQAEDEAVYFCGGYDSSTGHGGIFGAGTTLTVL
modifications: mouse constant regions
B4: #8-1: chicken-mouse chimeric anti-FSTL1 antibody clone; variable regions SEQ ID NO: 791 (light), 793 (heavy) (antibody, V domains shown)
VH: AVTLDESGGGLQTPGGALSLVCKGSGFTFSSFNMFWVRQAPGKGLEWVAGIGKDGVPKYGAAVDGRATISKDNGQSTMRLQLNNLRAEDTGTYFCAKAAGGCSYDWCGIYAGDIDTWGHGTEVIVSS
VL: ASTQPSSVSANPGEAVKITCSGGSGSYYGWYQQKSPGSAPVTVIYNNNQRPSDIPSRFSGSKSGSTATLTITGVQAEDEAVYFCGGYDSSSGHGGIFGAGTTLTVL
modifications: mouse constant regions
B5: #13: chicken-mouse chimeric anti-FSTL1 antibody clone; variable regions SEQ ID NO: 815 (light), 817 (heavy) (antibody, V domains shown)
VH: AVTLDESGGGLQTPGGGLSLVCKASGFTFSSVTMQWVRQAPGKGLEWVASICSGSSTYYGPAVKGRATISRDNGQNTVRLQLNNLRAEDTATYYCAKIVGRGRWSCTSAAYNIDAWGHGTEVIVSS
VL: ASTQPSSVSANPGETVKITCSGGGNNYGWYQQKSPGSAPVTVIYNNNNRPSNIPSRFSGSKSGSTNTLTITGVQAEDEAVYYCGSYDSSSDSGIFGAGTTLTVL
modifications: mouse constant regions
B6: #6-55: chicken-mouse chimeric anti-FSTL1 antibody clone; variable regions SEQ ID NO: 783 (light), 785 (heavy) (antibody, V domains shown)
VH: AVTLDESGGGLQTPGGALSLVCKGSGFTFTSVTMQWVRQAPGKGLEWVASVCSGSSTYYAPAVKGRATISRDNGQSTVRLQLSNLRPEDTGTYYCAKIAGRARWSCTSAAYNIDAWGHGTEVIVSS
VL: ASTQPSSVSAIPGETVKITCSGGGNNYGWYQQRSPGSAPVTVIYYNDNRPSNIPSRFSGSTSGSTSTLTITGVQADDEAIYYCGSWDSNTDSGIFGAGTTLTVL
modifications: mouse constant regions
B7: #7-34: chicken-mouse chimeric anti-FSTL1 antibody clone; variable regions SEQ ID NO: 787 (light), 789 (heavy) (antibody, V domains shown)
VH: AVTLDESGGGLQTPGGGLSLVCKASGFTFSSVTMQWVRQAPGKGLEWVASICSGSSTYYGPAVKGRATISRDNGQNTVRLQLNNLRAEDTATYYCAKIVGRGRWSCTSAAYNIDAWGHGTEVIVSS
VL: ASTQPSSVSANPGETVKITCSGGGNNYGWYQQKSPGSAPVTVIYYNNNRPSNIPSRFSGSTSGSTSTLTITGVQAEDEAVYYCGSYEGSTDSGIFGAGTTLTVL
modifications: mouse constant regions
B8: #33: chicken-mouse chimeric anti-FSTL1 antibody clone; variable regions SEQ ID NO: 823 (light), 825 (heavy) (antibody, V domains shown)
VH: AVTLDESGGGLQTPGGGLSLVCKASGFTFSSFNMNWVRQAPGKGLEYVAEISGTGSSTYYGSAVKGRATISRDNGQSTVRLQLNNLRAEDTATYFCARGDGAYSIDAWGHGTEVIVSS
VL: ASTQPSSVSANPGETVEITCSGDSSYYGWFQQKSPGSAPVTVIYDNTNRPSDIPSRFSGSKSGSTATLTITGVRAEDEAVYYCGGYDSSTYDGIFGAGTTLTVL
modifications: mouse constant regions

Tests used:
FSTL1 [1] = biological target: T1, FSTL1; experiment: Inhibition of MSC induction by FSTL1 in mouse bone marrow cells, ALCAM- and PDGFRA-positive cells (Example 4); type: cell-based; design: purchased R&D Systems, Inc. 1694-FN-050; conditions: FSTL1 50 ng/mL, antibody 10 μg/mL, 11 days, vs control anti-DNP antibody
Experimental: It is known that when bone marrow cells are stimulated with FSTL1, mesenchymal stem cells (MSCs) having pluripotency or self-proliferative capacity grow (Cancer Research 73: 6185, 2013). Thus, 2×10^7 cells/well of bone marrow cells collected from the thigh bone of a C57BL/6 mouse were suspended in 3 mL/well of RPMI1640 (GIBCO/Thermo Fisher Scientific Inc., Cat. No. C11875500BT) medium containing 2% fetal bovine serum, supplemented with 50 ng/mL (final concentration) of FSTL1 (R&D Systems, Inc. Cat#1694-FN-050) and 10 μg/mL of the anti-FSTL1 antibody (#5-2, #5-3, #5-8, #5-10, #5-43, #6-55, or #7-34) or its isotype mouse IgG (anti-DNP antibody) as a control antibody “Control”, and cultured under stimulation (6-well plate). 11 days thereafter, the number of cells was counted while the cells were stained with a PE-labeled anti-ALCAM antibody (eBioscience, Cat. No. 12-1661-82) and a PE-labeled anti-PDGFRA antibody (eBioscience, Cat#12-1401-81) in order to examine the expression of MSC markers, and the contents of ALCAM-positive cells and PDGFR-positive cells were analyzed by flow cytometry using FACScan (Becton, Dickinson and Company, Code. BECTON-DICKINSON-FACSCAN) to calculate the number of each positive cell per culture.

mouse FSTL1 = biological target: T2, mouse FSTL1; experiment: ELISA binding activity of purified antibody against mouse FSTL1
Experimental: The reactivity of the obtained antibody clones described above with FSTL1 was evaluated by ELISA under the following conditions.
(Table 2 ELISA Conditions for Binding Activity Evaluation of Purified Antibody)
Antibodies used: anti-dinitrophenyl (DNP) antibody (negative control), #5-2, #5-3, #5-8, #5-10, #5-43, #6-55, and #7-34
FIGS. 96 and 97 show results of evaluating binding activity under the condition of Table 3 as to clones differing in screening and antibody purification timings.
(Table 3 ELISA Conditions for Binding Activity Evaluation of Purified Antibody)

FSTL1 [2] = biological target: T1, FSTL1; experiment: Affinity of mouse chimeric antibodies, Biacore T-200 (Example 33); type: binding
Experimental: The mouse chimeric antibodies were immobilized onto Sensor Chip CM5 (GE Healthcare Japan Corp., BR-1005-30) using Mouse Antibody Capture Kit (GE Healthcare Japan Corp., BR-1008-38), and their affinity for human FSTL1 was calculated using Biacore T-200 (GE Healthcare Japan Corp.).
First, the exhaustive activity comparison of the obtained antibodies was conducted with the human FSTL1 concentration fixed to 10 μg/ml (Table 33-1, FIG. 28).
Next, the KD values of clone #6-55, #7-34, and #13 presumed to have high affinity in FIG. 28 were calculated with the antigen concentration adjusted to 0 to 20 μg/ml (Table 35-2).

[3] = ELISA Table 3 conditions, FIG. 97B

Molecule	inhibitory activity against the expansion of ALCAM-positive cells and PDGFRA-positive cells by FSTL1 (FSTL1 [1])	binding activity against mouse FSTL1 (mouse FSTL1; [3])	affinity in surface plasmon resonance assay (FSTL1 [2])	also measured
B1	slightly strong tendency of inhibitory activity	–	–	–
B2	–	no binding activity	–	–
B3	–	no binding activity	–	–
B4	–	very slightly exhibited binding activity	–	–
B5	–	–	strong affinity	–
B6	slightly strong tendency of inhibitory activity	–	strong affinity	binding activity against mouse FSTL1 (mouse FSTL1; ELISA, FIG. 95B): specific and equivalently strong binding activity
B7	slightly strong tendency of inhibitory activity	–	–	–
B8	–	–	strong affinity	–
